Test results from US20170368168A1 (AGENUS, published 2017).
Residue numbers refer to the chain shown, from its start. In names and notes the source's numbering stands.

B1: AM-3 (IgG1 N297A) (antibody, V domains shown)
VH: EVQLVESGGGLVQPGGSLRLSCAASGFTFMSGQTSWVRRAPGKGLEWVSAISGSGGSTYYADSVKGRFTISRDNSKNTLYLQMNSLRAEDTAVYYCAKGGDYGGNYFDYWGQGTLVTVSS
VL: EIVLTQSPATLSLSPGERATLSCRASQSVSSYLAWYQQKPGQAPRLLIYDASNRATGIPASFSGSGSGTDFTLTISRLEPEDFAVYYCQQYGSSPLTFGGGTKVEIKR
B2: pab2191 (IgG1 variant) (antibody, V domains shown)
VH: not shown
VL: EIVLTQSPGTLSLSPGERATLSCRASQSVSSYLAWYQQKPGQAPRLLIYDASNRATGIPARFSGSGSGTDFTLTISRLEPEDFAVYYCQQYGSSPLTFGGGTKVEIK
B3: pab2184 (IgG1 variant) (antibody, V domains shown)
VH: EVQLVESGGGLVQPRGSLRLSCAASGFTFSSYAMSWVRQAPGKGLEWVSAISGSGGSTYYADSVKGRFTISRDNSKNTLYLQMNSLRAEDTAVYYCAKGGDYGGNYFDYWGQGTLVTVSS
VL: B2 VL with D50G, N53S, L96I
B4: pab2190 (IgG1 variant) (antibody, V domains shown)
VH: not shown
VL: B2 VL with N53S, A60D
B5: pab2189 (IgG1 variant) (antibody, V domains shown)
VH: not shown
VL: B2 VL with G9A
B6: pab2186 (IgG1 variant) (antibody, V domains shown)
VH: not shown
VL: B2 VL with G9A, R77S
B7: pab2192 (IgG1 variant) (antibody, V domains shown)
VH: not shown
VL: B2 VL with D50G, N53S, L96I
B8: pab2174 (IgG1) (antibody, V domains shown)
VH: not shown
VL: B2 VL with G9A
B9: pab2191 (IgG1) (antibody, V domains shown)
VH: not shown
VL: B2 VL
B10: pab2180 (IgG1) (antibody, V domains shown)
VH: not shown
VL: B2 VL with N53S, A60D
B11: pab2173 (IgG1) (antibody, V domains shown)
VH: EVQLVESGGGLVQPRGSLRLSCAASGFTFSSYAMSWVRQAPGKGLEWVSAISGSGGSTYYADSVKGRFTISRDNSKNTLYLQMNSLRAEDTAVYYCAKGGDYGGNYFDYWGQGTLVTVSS
VL: B2 VL with G9A
B12: pab2177 (IgG1) (antibody, V domains shown)
VH: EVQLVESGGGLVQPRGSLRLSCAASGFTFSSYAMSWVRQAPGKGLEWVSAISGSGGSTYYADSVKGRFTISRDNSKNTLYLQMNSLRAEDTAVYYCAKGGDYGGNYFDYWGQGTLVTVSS
VL: B2 VL
B13: pab2182 (IgG1) (antibody, V domains shown)
VH: not shown
VL: B2 VL with D50G, N53S, L96I
B14: pab2188 (IgG1) (antibody, V domains shown)
VH: not shown
VL: B2 VL with G9A, R61S
B15: pab2192 (IgG1) (antibody, V domains shown)
VH: not shown
VL: B2 VL with D50G, N53S, L96I
B16: pab2178 (IgG1) (antibody, V domains shown)
VH: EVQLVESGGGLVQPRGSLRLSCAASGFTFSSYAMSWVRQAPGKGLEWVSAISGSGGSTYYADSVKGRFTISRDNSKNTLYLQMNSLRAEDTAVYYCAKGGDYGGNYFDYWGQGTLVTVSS
VL: B2 VL with G9A, R61S
B17: pab2186 (IgG1) (antibody, V domains shown)
VH: not shown
VL: B2 VL with G9A, R77S
B18: pab2189 (IgG1) (antibody, V domains shown)
VH: not shown
VL: B2 VL with G9A
B19: pab2179 (IgG1) (antibody, V domains shown)
VH: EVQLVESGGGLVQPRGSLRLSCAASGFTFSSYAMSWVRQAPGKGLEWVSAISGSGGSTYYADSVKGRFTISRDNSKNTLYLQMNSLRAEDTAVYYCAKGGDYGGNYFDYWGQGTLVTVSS
VL: B2 VL with N53S, A60D
B20: pab2183 (IgG1) (antibody, V domains shown)
VH: not shown
VL: B2 VL with G9A, D50G, N53T
B21: pab2184 (IgG1) (antibody, V domains shown)
VH: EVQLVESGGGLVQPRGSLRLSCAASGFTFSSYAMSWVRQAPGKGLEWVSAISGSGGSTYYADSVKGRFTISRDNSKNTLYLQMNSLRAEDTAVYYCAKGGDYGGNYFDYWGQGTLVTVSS
VL: B2 VL with D50G, N53S, L96I
B22: pab2175 (IgG1) (antibody, V domains shown)
VH: not shown
VL: B2 VL with G9A, R61S
B23: pab2176 (IgG1) (antibody, V domains shown)
VH: not shown
VL: B2 VL
B24: pab2190 (IgG1) (antibody, V domains shown)
VH: not shown
VL: B2 VL with N53S, A60D

Molecular target: T1, human TIM-3 expressed on cells (human, UniProt Q8TDQ0 22-301)
T1 construct: also called T cell immunoglobulin and mucin domain-3; HAVCR2
T1 sequence: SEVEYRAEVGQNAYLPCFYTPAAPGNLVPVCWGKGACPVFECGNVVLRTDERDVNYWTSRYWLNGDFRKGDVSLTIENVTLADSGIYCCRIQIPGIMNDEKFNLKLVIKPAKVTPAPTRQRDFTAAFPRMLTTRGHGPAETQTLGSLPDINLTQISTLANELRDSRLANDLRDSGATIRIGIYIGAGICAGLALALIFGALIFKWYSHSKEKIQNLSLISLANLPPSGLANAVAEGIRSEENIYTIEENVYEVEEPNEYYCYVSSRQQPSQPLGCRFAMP
Test: flow cytometry, Jurkat cells ectopically expressing human TIM-3

Binding result, binds:
B1

Molecular target: T1, human TIM-3 expressed on cells
Test: flow cytometry, anti-CD3/anti-CD28 activated primary human CD8+ T cells
Method: Briefly, peripheral blood mononuclear cells (PBMCs) isolated via ficoll gradient from healthy donor buffy coats (Research Blood Components, LLC) were enriched for untouched pan-T cells using magnetic-based separation (Miltenyi Biotec). The enriched population of T lymphocytes was then activated with plate-bound anti-CD3 antibody (SP34, 3 μg/ml) and soluble anti-CD28 antibody (CD28.1, 2 μg/ml) for 3 days in RPMI media, supplemented with 10% heat-inactivated FBS, at 37° C. and 5% CO₂. Following activation, cells were incubated with human Fc-receptor block for 15 minutes at room temperature to reduce non-specific binding (FcR block, Biolegend). Anti-TIM-3 or IgG isotype control antibodies (12-point dose titration, 10,000 ng/ml to 0.06 ng/ml) were added to individual samples and incubated for 30 minutes at 4° C. Samples were washed two times and an antibody cocktail, containing FITC-conjugated anti-kappa antibody as well as anti-CD3 (BV711, OKT3), anti-CD4 (BV605, OKT4) and anti-CD8a (PE, RPA-T8, all at 2.5 μg/ml, was diluted in buffer (PBS, 2 mM EDTA, 0.5% BSA, pH 7.2), added to each sample and incubated for 30 minutes at 4° C. Samples were washed two times and analyzed using the LSRFortessa flow cytometer (BD Biosciences). Flow cytometry plots were analyzed using a combination of FACS DIVA and WEHI Weasel software.

Binding result, binds:
B2, B3, B4, B5, B6, B7

Molecular target: T1, human TIM-3 expressed on cells
Test: flow cytometry, 1624-5 cells expressing human TIM-3

Binding result, binds:
B8, B9, B10, B11, B12, B13, B14, B15, B16, B17, B18, B19, B20, B21, B22, B23, B24
